B1: Fab fragment of antibody 15572 (Fab, V domains shown, not shown: a dimerising Fc or GST)
VH: QLQLQESGPGLVKPSETLSLTCTVSGDSISSSSYYWGWIRQPPGKGLEWIGSIFYSGNTYYNPSLKSRVTISVDTSKNQFSLKLSSVTAADTAVYYCAREDDFLTDYYGAFDIWGQGTMVTVSS
VL: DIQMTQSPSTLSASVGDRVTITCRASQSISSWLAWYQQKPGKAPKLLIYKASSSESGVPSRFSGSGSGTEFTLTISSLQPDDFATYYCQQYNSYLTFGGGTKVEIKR
notes: monomeric Fab made by GingisKHAN digestion of the IgG1
B2: Fab fragment of antibody 15011 (Fab, V domains shown, not shown: a dimerising Fc or GST)
VH: EVQLLESGGGLVQPGGSLRLSCAASGFDFRSYAMMWVRQAPGKGLEWVGGINGEVGGSNTYYAPAVKGRATISRDNSKNTLYLQMNSLRAEDTAVYYCVKGAGACGICNDDIDAWGQGTLVTVSS
VL: SYELTQDPAVSVALGQTVRITCSGAGSYAGSYYYGWHQQKPGQAPVTVIYDNDKRPSNIPDRFSGSSSGNTASLTITGAQAEDEADYYCGSTNDNDDGGLFGSGTKVTVLG
notes: as for B1
B3: Fab fragment of antibody 15532 (Fab, V domains shown, not shown: a dimerising Fc or GST)
VH: QVQLQQWGAGLLRPSETLSLTCAVYGESFSGYYWNWIRQPPGKGLEWIGEINHSGSTNYNPSLKSRVTISVDTSKTQFSLKLSSVTAADTAVYYCARGWDLLDWNDYWNEYWGQGTLVTVSS
VL: EIVLTQSPATLSLSPGERATLSCRASQSVSSYLAWYQQKPGQAPRLLIYDASNRATGIPARFSGSGSGTDFTLTISSLEPEDFAVYYCQQRSNWPLTFGGGTKVEIKR
notes: as for B1
B4: Fab fragment of antibody 15431 (Fab, V domains shown, not shown: a dimerising Fc or GST)
VH: QVQLQQSGPGLVKPSQTLSLTCAISGDSVSSNSAAWNWIRQSPSRGLEWLGRTYYRSKWYNDYAVSVKSRITINPDTSKNQFSLQLNSVTPEDTAVYYCARDDDWNDFDYWGQGTLVTVSS
VL: EIVLTQSPATLSLSPGERATLSCRASQSVSSYLAWYQQKPGQAPRLLIYDASNRATGIPARFSGSGSGTDFTLTISSLEPEDFAVYYCQQRSNWPLTFGGGTKVEIKR
notes: as for B1

Assays:
Assay in all cases: SPR, Fab over captured mutant LAG-3-Fc;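 further: fc fusion variants captured on anti-human IgG Fc sensor, Fab injected with association then dissociation phases, KD obtained from Langmuir one-to-one fit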
[1] = molecular target: T1, human LAG-3 domain 1-2 Fc fusion, point mutation #5 P46A (human, UniProt P18627 23-266)
T1 construct: not shown: human IgG1 Fc, AA P101-K330
T1 sequence: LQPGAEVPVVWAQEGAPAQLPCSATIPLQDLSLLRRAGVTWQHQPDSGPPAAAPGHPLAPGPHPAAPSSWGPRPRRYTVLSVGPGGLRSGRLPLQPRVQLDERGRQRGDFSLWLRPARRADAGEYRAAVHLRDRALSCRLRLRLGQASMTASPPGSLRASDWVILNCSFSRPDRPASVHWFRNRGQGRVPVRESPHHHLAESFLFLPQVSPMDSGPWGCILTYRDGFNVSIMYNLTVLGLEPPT

[2] = molecular target: T2, human LAG-3 domain 1-2 Fc fusion, point mutation #38 S91A (human, UniProt P18627 23-266)
T2 construct: not shown: human IgG1 Fc, AA P101-K330
T2 sequence: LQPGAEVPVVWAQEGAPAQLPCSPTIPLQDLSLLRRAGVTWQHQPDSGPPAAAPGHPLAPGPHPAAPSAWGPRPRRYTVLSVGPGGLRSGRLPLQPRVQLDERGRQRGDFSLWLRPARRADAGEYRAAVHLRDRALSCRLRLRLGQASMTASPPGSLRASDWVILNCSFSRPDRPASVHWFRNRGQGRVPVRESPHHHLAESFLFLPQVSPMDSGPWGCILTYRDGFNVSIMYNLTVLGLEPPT

[3] = molecular target: T3, human LAG-3 domain 1-2 Fc fusion, point mutation #27 L80A (human, UniProt P18627 23-266)
T3 construct: not shown: human IgG1 Fc, AA P101-K330
T3 sequence: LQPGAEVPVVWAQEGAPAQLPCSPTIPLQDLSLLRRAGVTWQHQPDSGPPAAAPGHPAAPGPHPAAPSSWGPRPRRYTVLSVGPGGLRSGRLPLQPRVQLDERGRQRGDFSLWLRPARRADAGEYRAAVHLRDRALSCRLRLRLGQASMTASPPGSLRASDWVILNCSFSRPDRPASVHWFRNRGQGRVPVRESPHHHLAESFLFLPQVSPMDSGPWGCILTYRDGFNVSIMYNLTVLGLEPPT

[4] = molecular target: T4, human LAG-3 domain 1-2 Fc fusion, point mutation #14 T62A (human, UniProt P18627 23-266)
T4 construct: not shown: human IgG1 Fc, AA P101-K330
T4 sequence: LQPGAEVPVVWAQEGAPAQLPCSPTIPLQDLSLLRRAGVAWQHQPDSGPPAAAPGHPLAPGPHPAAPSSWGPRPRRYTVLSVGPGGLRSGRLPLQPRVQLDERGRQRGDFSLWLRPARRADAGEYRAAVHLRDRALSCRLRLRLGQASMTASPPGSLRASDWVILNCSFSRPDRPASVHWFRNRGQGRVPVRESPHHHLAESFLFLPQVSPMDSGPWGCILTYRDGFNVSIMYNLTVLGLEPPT

[5] = molecular target: T5, human LAG-3 domain 1-2 Fc fusion, point mutation #12 R57A (human, UniProt P18627 23-266)
T5 construct: not shown: human IgG1 Fc, AA P101-K330
T5 sequence: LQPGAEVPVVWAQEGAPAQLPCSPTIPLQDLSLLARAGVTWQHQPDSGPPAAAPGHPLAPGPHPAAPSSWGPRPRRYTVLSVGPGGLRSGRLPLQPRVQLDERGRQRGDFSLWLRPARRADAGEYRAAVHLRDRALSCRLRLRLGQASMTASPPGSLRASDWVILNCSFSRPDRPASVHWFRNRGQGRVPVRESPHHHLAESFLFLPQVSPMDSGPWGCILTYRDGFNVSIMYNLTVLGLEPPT

[6] = molecular target: T6, human LAG-3 domain 1-2 Fc fusion, point mutation #32 H85A (human, UniProt P18627 23-266)
T6 construct: not shown: human IgG1 Fc, AA P101-K330
T6 sequence: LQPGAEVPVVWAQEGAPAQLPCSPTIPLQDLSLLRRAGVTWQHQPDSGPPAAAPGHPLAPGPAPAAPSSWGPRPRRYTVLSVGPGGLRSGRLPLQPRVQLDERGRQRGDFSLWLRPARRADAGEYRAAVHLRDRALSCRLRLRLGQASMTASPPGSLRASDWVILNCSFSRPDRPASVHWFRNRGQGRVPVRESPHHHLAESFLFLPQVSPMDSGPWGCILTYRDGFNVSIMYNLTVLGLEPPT

[7] = molecular target: T7, human LAG-3 domain 1-2 Fc fusion, point mutation #48 V101A (human, UniProt P18627 23-266)
T7 construct: not shown: human IgG1 Fc, AA P101-K330
T7 sequence: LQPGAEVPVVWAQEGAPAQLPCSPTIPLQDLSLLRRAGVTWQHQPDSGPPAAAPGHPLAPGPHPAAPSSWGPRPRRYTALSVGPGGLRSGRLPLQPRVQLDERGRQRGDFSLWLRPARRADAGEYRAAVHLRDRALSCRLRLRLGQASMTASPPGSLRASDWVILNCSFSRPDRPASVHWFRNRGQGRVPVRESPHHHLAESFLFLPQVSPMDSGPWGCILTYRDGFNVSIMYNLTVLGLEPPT

[8] = molecular target: T8, human LAG-3 domain 1-2 Fc fusion, point mutation #58 P115A (human, UniProt P18627 23-266)
T8 construct: not shown: human IgG1 Fc, AA P101-K330
T8 sequence: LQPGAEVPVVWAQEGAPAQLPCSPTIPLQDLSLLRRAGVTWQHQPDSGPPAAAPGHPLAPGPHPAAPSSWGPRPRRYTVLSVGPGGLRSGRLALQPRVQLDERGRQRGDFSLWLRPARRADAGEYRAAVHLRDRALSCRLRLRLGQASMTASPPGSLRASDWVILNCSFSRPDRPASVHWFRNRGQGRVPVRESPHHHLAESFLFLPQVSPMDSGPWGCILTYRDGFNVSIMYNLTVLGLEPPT

[9] = molecular target: T9, human LAG-3 domain 1-2 Fc fusion, point mutation #56 G112A (human, UniProt P18627 23-266)
T9 construct: not shown: human IgG1 Fc, AA P101-K330
T9 sequence: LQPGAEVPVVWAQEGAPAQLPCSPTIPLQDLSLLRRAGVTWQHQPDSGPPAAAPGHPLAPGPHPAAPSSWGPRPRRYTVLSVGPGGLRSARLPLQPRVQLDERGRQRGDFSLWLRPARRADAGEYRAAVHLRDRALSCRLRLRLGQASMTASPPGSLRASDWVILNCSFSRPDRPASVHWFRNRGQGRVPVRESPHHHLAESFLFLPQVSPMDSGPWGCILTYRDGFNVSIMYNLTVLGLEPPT

| Binder | binding result [1] | KD mutant/KD wild type [2] | KD mutant/KD wild type [3] | binding result [4] | KD mutant/KD wild type [5] | KD mutant/KD wild type [6] | binding result [7] | KD mutant/KD wild type [8] | KD mutant/KD wild type [9] | KD mutant/KD wild type [1] | KD mutant/KD wild type [4] | KD mutant/KD wild type [7] |
| --- | --- | --- | --- | --- | --- | --- | --- | --- | --- | --- | --- | --- |
| B1 | no binding (tested: 300 nM) | 0.7 fold | 0.6 fold | no binding (tested: 300 nM) | 0.8 fold | 0.7 fold | no binding (tested: 300 nM) | 1.4 fold | 0.5 fold |  |  |  |
| B2 |  | 0.8 fold | 0.8 fold |  | 0.7 fold | 0.9 fold |  | 1.3 fold | 3.1 fold | 0.7 fold | 0.6 fold | 0.5 fold |
| B3 |  | 5.3 fold | 0.6 fold |  | 1.1 fold | 7.2 fold |  | 1 fold | 1 fold | 4 fold | 4.2 fold | 3.5 fold |
| B4 | no binding (tested: 300 nM) | 0.7 fold | 0.5 fold | no binding (tested: 300 nM) | 0.6 fold | 0.8 fold | no binding (tested: 300 nM) | 1.1 fold | 0.5 fold |  |  |  |

Reference: patent US20220363757A1 (SYMPHOGEN A S, published 2022)
